The results in this text go back to the supplement of paper PMC12042874.

± gives the uncertainty stated by the source.

A short description of this data set: amyloid nucleation score (Sup35N fusion, yeast selection) (log enrichment); library NNK1; higher = more nucleation; inactive = no reads after selection. The gist of the method:
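Peptides of 20 random codons fused to Sup35N were expressed in psi-negative yeast, induced 24 hours with 100 μM copper sulfate, then grown 7 days at 30°C on medium lacking adenine and uracil. Input and output plasmid inserts were Illumina-sequenced. Nucleation score is the DiMSum log enrichment of output over input reads, centred on the mode score of non-aggregating sequences, excluding sequences with under 100 input reads. Random libraries had three technical output replicates.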
For FSVWGLRLTRARMQTERVLL, the amyloid nucleation score turned out to be 0.86 ± 0.59.

Turning to FTALPSTVVIVQHTLHLDSF, the amyloid nucleation score is 6.48 ± 0.066.

On to FTCRFFVCFGLCGDHEHSPI, for which the amyloid nucleation score amounted to 7.561 ± 0.057.

The substance FTDTEYLQGLDIGVGMERLY had an amyloid nucleation score of -0.218 ± 0.65.

FTLHYCLMDAFWGSSMDRGV displayed an amyloid nucleation score of 0.275 ± 0.41.

Substance FTSRYLDF yielded an amyloid nucleation score of 0.382 ± 1.2.

FTVSLTSLYYISITGLLARR: the amyloid nucleation score is -0.115 ± 0.52.

Consider FTVVLYLSVVLKFKDAGEEG, for which the amyloid nucleation score was determined as 4.09 ± 0.092.

In turn, FVAGDSLTHARKYAVQRL displayed an amyloid nucleation score of -1.08 ± 0.59.

FVAVNILDMMKAYKLFENLF returned an amyloid nucleation score of -0.256 ± 0.22.

Take FVCWRYRCFLWELEEDGLVN: the amyloid nucleation score is 0.627 ± 0.71.

FVFHVGDDARGSCHKCRLWN: the amyloid nucleation score was determined as 0.665 ± 0.62.

Substance FVGFGWYCLDFFHFLNASLG had an amyloid nucleation score of -0.29 ± 1.4.

Substance FVGGVSSERYLFGWLS registered an amyloid nucleation score of -1.51 ± 1.

FVHDLWLGYGVNFLIAVMCS gave an amyloid nucleation score of 0.209 ± 0.34.

FVHPLMYSDS displayed an amyloid nucleation score of -0.386 ± 0.43.

In turn, FVINSTIRKVFFGFPDWCMC gave an amyloid nucleation score of -0.135 ± 0.3.

Regarding FVKGRGNKTQVWHESVYKDA, the amyloid nucleation score is -0.203 ± 0.54.

The substance FVKNSKHYRPFLNGSKRM had an amyloid nucleation score of 0.475 ± 0.83.

FVLFRLFEFASNIRVTFFF registered an amyloid nucleation score of -0.833 ± 0.62.

FVLGDCCDIFSSYNQIMYIS showed an amyloid nucleation score of 3.26 ± 0.12.

Regarding FVLGWQI, the amyloid nucleation score was found to be 1.63 ± 0.56.

FVMFLPIYEF had an amyloid nucleation score of -0.35 ± 0.8.

On to FVRIRYITGRITSDRRREFC, for which the amyloid nucleation score is 0.591 ± 1.

Consider FVSNYYYV, for which the amyloid nucleation score turned out to be 1.95 ± 0.17.

For the substance FVSRGLYGVLGTVSFLL, the amyloid nucleation score was -2.07 ± 1.6.

Take FVSWLFVS: the amyloid nucleation score was -1.4 ± 0.98.

Take FVVAVGLIVFD: the amyloid nucleation score is 0.027 ± 1.7.

For FVVEWWLASRMGLLIRGYRR, the amyloid nucleation score was -0.462 ± 0.58.

FVVRLRLLANLWWYNCCKCS gave an amyloid nucleation score of 0.748 ± 0.43.

Substance FWCISVRVNYNGYYVYF came in with an amyloid nucleation score of 1.2 ± 0.26.

In turn, FWELECADIAVKSKGGCQGC yielded an amyloid nucleation score of -0.402 ± 0.44.

The substance FWGCTQMSRLDATDVSL gave an amyloid nucleation score of 0.867 ± 1.

The substance FWGNGQRVNSNIQRDVKWDA registered an amyloid nucleation score of -0.199 ± 0.45.

FWIEGP: the amyloid nucleation score was 0.564 ± 0.9.

With FWSYLSGLVGMYGQIVIKKA, the amyloid nucleation score came to 0.059 ± 0.79.

On to FWYSNIYSIFMLPVIVWEPN, for which the amyloid nucleation score was 6.515 ± 0.053.

Turning to FYCPRIKNVFSEICIC, the amyloid nucleation score is 3.79 ± 0.1.

Turning to FYHKTFVYKEGLNGAALLGM, the amyloid nucleation score is -0.023 ± 0.48.

Substance FYRCRRSRNGGISDVFRIIP came in with an amyloid nucleation score of 0.242 ± 0.3.

Substance FYRSQMIFFYMLVAPMWGRL returned an amyloid nucleation score of -0.599 ± 0.56.

As for FYSCIYYGHMLVELPDMLEL, the amyloid nucleation score is -0.056 ± 0.35.

Take FYTCCMSYVVWIMHVRRLAG: the amyloid nucleation score was 0.774 ± 0.56.

With GACLWGT, the amyloid nucleation score worked out at 0.338 ± 0.29.

Regarding GAILENYALFESRTYFMLHC, the amyloid nucleation score is 0.383 ± 0.66.

GALFWVIPIMLLMRSGLLDP: the amyloid nucleation score was 0.498 ± 0.3.

The substance GAPRSCGLAD displayed an amyloid nucleation score of 0.27 ± 0.63.

In turn, GATTMFEVGICNENRKVYVE showed an amyloid nucleation score of -0.179 ± 0.29.

Take GCFMLSSGLGISEPGSFWWG: the amyloid nucleation score was found to be 0.224 ± 0.53.

GCFRGPTGLCG had an amyloid nucleation score of -0.271 ± 0.66.

In the case of GCMAPNCCGWEGVDEMSWVR, the amyloid nucleation score was -0.013 ± 0.84.

With GCRGSFVEGWIAHMADGSFI, the amyloid nucleation score is -0.577 ± 0.57.

With GCRPMSFKMSVAVGHLMGDT, the amyloid nucleation score was 2.79 ± 0.2.

In the case of GCSLLHLRVWYLSDHIIMRS, the amyloid nucleation score turned out to be 0.834 ± 0.36.

The substance GDMFVAKCYSRGDSQISLMF returned an amyloid nucleation score of 0.368 ± 0.37.

In the case of GDRKACSVRCRHATDKICAD, the amyloid nucleation score is -0.309 ± 0.57.

GDSYVRHRMDP: the amyloid nucleation score result was “inactive”.

Substance GDYVRWVRSGYLMQLLNEDS gave an amyloid nucleation score of -0.379 ± 0.75.

GDYYACGPTCGSRAAFPGVG had an amyloid nucleation score of -0.383 ± 0.59.

Turning to GEFESSNVRSACSGGYFRAA, the amyloid nucleation score was -0.186 ± 0.88.

For GEKYNIFNFGFVLCSSLVLF, the amyloid nucleation score is 8.116 ± 0.049.

Consider GEVSRWRMCGLSLMEGRGLQ, for which the amyloid nucleation score worked out at 0.733 ± 0.44.

Substance GFCFCCRSGYARVIRFEART had an amyloid nucleation score of -0.17 ± 0.48.

As to GFDFMWGGGFRNSRNRFQLS, the amyloid nucleation score is 0.428 ± 0.6.

Take GFDIMYLILTPSCPATQSGM: the amyloid nucleation score entry was “inactive”.

For the substance GFFGFIGRVMVIGRWREVPG, the amyloid nucleation score was -0.265 ± 0.24.

Substance GFFVNNCLFSILLDFWVSEE came in with an amyloid nucleation score of 1.24 ± 0.26.

GFIQWLMLWRVFFSM: the amyloid nucleation score is -0.681 ± 0.39.

In turn, GFIVTGNVGTFNALLERVLT gave an amyloid nucleation score of 4.04 ± 0.13.

GFKGILTYGRGVLVHFYRPQ showed an amyloid nucleation score of 0.09 ± 0.35.

The substance GFLVSEGFLIVGLLIRVRGL came in with an amyloid nucleation score of 0.641 ± 0.37.

On to GFMICVADTGTANSSYVDVF, for which the amyloid nucleation score is -0.201 ± 0.36.

Turning to GFMVDERSTIVEDLPRSADV, the amyloid nucleation score is -0.913 ± 0.34.

GFRQVSCHHHWGGNSWMCR had an amyloid nucleation score of 0.717 ± 0.19.

In the case of GFRSGSCGFGIL, the amyloid nucleation score is -1.14 ± 0.48.

In the case of GFSLSPRAWRTGGVWAECAE, the amyloid nucleation score was 0.7 ± 0.82.

For GFSSMGCSVRNSHTAHGGCG, the amyloid nucleation score came out at 1.73 ± 0.17.

For the substance GFSSMRYEGFGTGKCVDFLS, the amyloid nucleation score was 0.281 ± 0.22.

Take GFVEYYRVLTYDKM: the amyloid nucleation score is 1.22 ± 0.88.

Substance GFVPLWLW gave an amyloid nucleation score of 0.977 ± 0.8.

The substance GGAHSY came in with an amyloid nucleation score of 0.233 ± 0.5.

The substance GGELMAFTA returned an amyloid nucleation score of 0.553 ± 0.49.

For the substance GGFFRHGEIDMYRCSSEWFL, the amyloid nucleation score turned out to be 0.77 ± 0.97.

Substance GGIVLDTTHRVGYGRTSPCV came in with an amyloid nucleation score of 0.289 ± 1.2.

Substance GGIYANYNFGYLARTESGLG showed an amyloid nucleation score of 1.04 ± 0.7.

GGLKMTP showed an amyloid nucleation score of 0.393 ± 0.25.

With GGRNWFYRALR, the amyloid nucleation score worked out at 0.362 ± 0.63.

On to GGSGDTTSCMLFKRIVRR, for which the amyloid nucleation score result is “inactive”.

As for GGVISESTGYLRLIHRRWDG, the amyloid nucleation score was -0.751 ± 1.7.

On to GGYRVLIFSIFRG, for which the amyloid nucleation score worked out at 0.599 ± 0.51.

GHCGPEKREIDVAGVWVERS showed an amyloid nucleation score of -0.098 ± 1.3.

The substance GHDLSVPWRTDWLRGL yielded an amyloid nucleation score of 0.177 ± 1.2.

For GHGYCLSWFNGNDPRGTTTT, the amyloid nucleation score turned out to be 1.1 ± 0.7.

For the substance GHISIMVHYLFVSTHSSQED, the amyloid nucleation score came to 4.46 ± 0.13.

In turn, GHWLYMTYLCL returned an amyloid nucleation score of 0.459 ± 0.75.

For the substance GIFHANLTMVWRHIEVKEGC, the amyloid nucleation score was 0.696 ± 0.92.

GIGLGFQ: the amyloid nucleation score was -0.563 ± 0.53.

GILLRH: the amyloid nucleation score was -0.742 ± 1.2.

Consider GINNIYGLRYRHMPTSSIVA, for which the amyloid nucleation score was determined as 1.88 ± 0.39.

The substance GIRPNFTVRFGGSWSQRNDR registered an amyloid nucleation score of 0.749 ± 0.47.

GISLSLVVERSGK displayed an amyloid nucleation score of 1.49 ± 0.21.

In turn, GIYTFFVGTKFC yielded an amyloid nucleation score of 0.65 ± 0.5.

On to GKAASRNGGMWKEMRFEACD, for which the amyloid nucleation score amounted to 0.046 ± 0.42.

Substance GKEPVACRIPNKA registered an amyloid nucleation score of 1.17 ± 0.3.

In the case of GKHGQDFNSYRRVWLKSYLC, the amyloid nucleation score came to 1.07 ± 0.52.

GKLVVFNFL showed an amyloid nucleation score of 8.483 ± 0.048.

GKNTYVCVGSSASSFWGSLL yielded an amyloid nucleation score of 0.86 ± 0.77.

Substance GKNWSFLTSYFCWFTLKIH registered an amyloid nucleation score of 1.4 ± 0.35.

As for GKSMYCYK, the amyloid nucleation score was -0.96 ± 2.7.

For the substance GKTISGL, the amyloid nucleation score is 0.239 ± 0.44.

GLCMEYTVWWVWSWITLRVD displayed an amyloid nucleation score of -0.294 ± 0.26.

Consider GLGCYVKNKTHESYARSTAH, for which the amyloid nucleation score is -0.671 ± 0.56.

In turn, GLKGDIWDMGYSFGWRDGDA registered an amyloid nucleation score of 0.297 ± 0.51.

Turning to GLLVGLQQCYNYGWKGSDCN, the amyloid nucleation score turned out to be 0.504 ± 0.75.

GLMNSRYMYVVNMS: the amyloid nucleation score came to 0.758 ± 0.4.

In turn, GLNCSGNGEVIWQP gave an amyloid nucleation score of -0.403 ± 1.4.

As for GLQFSFVEFFSLYVESEDHY, the amyloid nucleation score turned out to be 0.332 ± 0.35.

Turning to GLRATVYITLRFE, the amyloid nucleation score is -0.442 ± 0.43.

GLRDACFSVLPVYLWVSNGD yielded an amyloid nucleation score of 0.281 ± 0.55.

Take GLRSESRKRGGGGGVAREVG: the amyloid nucleation score was -0.053 ± 0.86.

Consider GLVSRLCRFHFMCIACNPKL, for which the amyloid nucleation score was found to be 0.585 ± 0.43.

GLWLQL displayed an amyloid nucleation score of 0.216 ± 0.26.

Turning to GMCSEGTFKRQLISMHTCRT, the amyloid nucleation score stood at 0.247 ± 0.79.

For the substance GMLDAY, the amyloid nucleation score entry is “inactive”.

With GMNPQTHAPVILTLGVQNIR, the amyloid nucleation score is 2.2 ± 0.14.

As to GMPGHFLLLKLGYFANRTNR, the amyloid nucleation score is -1.25 ± 1.1.

In turn, GMRVLQIFGTGGGDSNTRGD registered an amyloid nucleation score of 0.84 ± 0.36.

In turn, GMYLYIPLSITFTVEHTVVA gave an amyloid nucleation score of 5.02 ± 0.093.

In turn, GNAWCGLGSKKYCVWLYHYS yielded an amyloid nucleation score of 0.214 ± 0.28.

With GNFCFPMAYTGLVFGEMLSF, the amyloid nucleation score was 0.1 ± 0.24.

The substance GNGFVL returned an amyloid nucleation score of 0.999 ± 0.45.

For GNIFAYGT, the amyloid nucleation score is -0.611 ± 0.76.

The substance GNIFWRMLWFVGYEKGSLLF displayed an amyloid nucleation score of -0.022 ± 0.36.

GNKPLVVHGSGGICKLCE: the amyloid nucleation score is -0.147 ± 0.38.

In the case of GNLVTCNSKYTRMEG, the amyloid nucleation score is 0.166 ± 0.49.

For the substance GNSWTSVVLHYFGSFSWGVT, the amyloid nucleation score result was “inactive”.

Substance GNTWNIMFNICCLQGIECCL displayed an amyloid nucleation score of 7.349 ± 0.051.

In the case of GNWAVGSIRDSCICGYIELR, the amyloid nucleation score turned out to be 6.915 ± 0.046.

GNWGNGSGTCLCTSSFYCRL showed an amyloid nucleation score of 2.78 ± 0.14.
